These results are taken from US6548639 (BIOSTAPRO, dated 2003).

In this experiment the target is T1, MAL-Sbi (aa 33-436, SEQ ID NO:3) (Staphylococcus aureus strain 8325-4, UniProt A6QJQ7 33-436).
T1 construct: Expressed in E. coli from pMAL-c2 (BamHI-SalI insert), purified on amylose resin and then on IgG-Sepharose; also called MAL-fusion of protein Sbi; mature full length protein; not shown: its limits and the v
The experiment can be described thus: blot of the purified proteins overlaid with MAL-Sbi, detected with HRP-labelled chicken anti-Sbi.

B1: bovine apolipoprotein H (other)
chain: GRTCPKPDELPFSTVVPLKRTYEPGEQIVFSCQPGYVSRGGIRRFTCPLTGLWPINTLKCMPRVCPFAGILENGTVRYTTFEYPNTISFSCHTGFYLKGASSAKCTEEGKWSPDLPVCAPITCPPPPIPKFASLSVYKPLAGNNSFYGSKAVFKCLPHHAMFGNDTVTCTEHGNWTQLPECREVRCPFPSRPDNGFVNHPANPVLYYKDTATFGCHETYSLDGPEEVECSKFGNWSAQPSCKASCKLSIKRATVIYEGERVAIQNKFKNGMLHGQKVSFFCKHKEKKCSYTEDAQCIDGTIEIPKCFKEHSSLAFWKTDASDVKPC
notes: mature; Serum protein; also called β2-glycoprotein I
Regarding B1, the binding result is given as “binds”.
